Experimental data as given in patent US20080032921A1.

Columns and labels:
[1] = target: purified HLA DRB1*1101 (human); experiment: competitive inhibition of 125I-labeled peptide binding to purified HLA
[2] = target: purified HLA DRB1*0401 (human); experiment: as above
[3] = target: purified HLA DRB1*0301 (human); experiment: as above
[4] = target: purified HLA DRB1*1501 (human); experiment: as above
[5] = target: purified HLA DRB4*0101 (human); experiment: as above
[6] = target: purified HLA DRB1*0101 (human); experiment: as above
[7] = target: purified HLA DRB1*0701 (human); experiment: as above
[8] = target: purified HLA DRB1*0404 (human); experiment: as above
[9] = target: purified HLA DRB1*1302 (human); experiment: as above
[10] = target: purified HLA DRB1*0802 (human); experiment: as above
[11] = target: purified HLA DRB1*0405 (human); experiment: as above
[12] = target: purified HLA DRB5*0101 (human); experiment: as above
[13] = target: purified HLA DRB1*1101 (human); experiment: competition with 125I-labelled peptide for purified HLA
[14] = target: purified HLA DRB1*0401 (human); experiment: as above
[15] = target: purified HLA DRB1*0301 (human); experiment: as above
[16] = target: purified HLA DRB1*1501 (human); experiment: as above
[17] = target: purified HLA DRB1*0101 (human); experiment: as above
[18] = target: purified HLA DRB1*0701 (human); experiment: as above
[19] = target: purified HLA DRB1*0404 (human); experiment: as above
[20] = target: purified HLA DRB1*1302 (human); experiment: as above
[21] = target: purified HLA DRB1*0405 (human); experiment: as above
HLA-DR DRB1*0301 (human) [22] = experiment: competition with 125I-labelled reference peptide on purified HLA-DR
HLA-DR DRB1*0405 (human) [23] = experiment: as above
HLA-DR DRB1*1302 (human) [24] = experiment: as above
HLA-DR DRB1*0101 (human) [25] = experiment: as above
HLA-DR DRB1*1501 (human) [26] = experiment: as above
HLA-DR DRB1*0701 (human) [27] = experiment: as above
HLA-DR DRB1*1101 (human) [28] = experiment: as above
HLA-DR DRB1*0401 (human) [29] = experiment: as above
HLA-DR DRB1*0404 (human) [30] = experiment: as above
HLA-DR DRB4*0101 (human) = experiment: competition with 125I-labelled peptide, purified HLA
HLA-DR DRB1*0301 (human) [31] = experiment: as above
HLA-DR DRB1*0405 (human) [32] = experiment: as above
HLA-DR DRB1*1302 (human) [33] = experiment: as above
HLA-DR DRB5*0101 (human) = experiment: as above
HLA-DR DRB1*0101 (human) [34] = experiment: as above
HLA-DR DRB1*0901 (human) = experiment: as above
HLA-DR DRB1*1501 (human) [35] = experiment: as above
HLA-DR DRB1*0701 (human) [36] = experiment: as above
HLA-DR DRB1*1101 (human) [37] = experiment: as above
HLA-DR DRB1*0401 (human) [38] = experiment: as above
HLA-DR DRB1*0404 (human) [39] = experiment: as above
HLA-DR DRB1*0802 (human) = experiment: as above

Binder: RREVHIYYLEKANKI (modifications not checked) [Flu.PA.127 peptide …]
- IC50 [1]: 96 nM
- IC50 [2]: 63 nM
- IC50 [3]: > 10000 nM
- IC50 [4]: 4.5 nM
- IC50 [5]: 5 nM
- IC50 [6]: 34 nM
- IC50 [7]: 23 nM
- IC50 [8]: 181 nM
- IC50 [9]: 150 nM
- IC50 [10]: 95 nM
- IC50 [11]: 1490 nM
- IC50 [12]: 25 nM

Binder: YIQMCTELKLSDYEG (modifications not checked) [Flu.NP.43 peptide …]
- IC50 [13]: 5840 nM
- IC50 [14]: 392 nM
- IC50 [15]: 368 nM
- IC50 [16]: 594 nM
- IC50 [17]: 320 nM
- IC50 [18]: 5370 nM
- IC50 [19]: 1640 nM
- IC50 [20]: 15400 nM
- IC50 [21]: 2690 nM
- IC50 (HLA-DR DRB1*0301 (human) [22]): 368 nM
- IC50 (HLA-DR DRB1*0405 (human) [23]): 2690 nM
- IC50 (HLA-DR DRB1*1302 (human) [24]): 15400 nM
- IC50 (HLA-DR DRB1*0101 (human) [25]): 320 nM
- IC50 (HLA-DR DRB1*1501 (human) [26]): 594 nM
- IC50 (HLA-DR DRB1*0701 (human) [27]): 5370 nM
- IC50 (HLA-DR DRB1*1101 (human) [28]): 5840 nM
- IC50 (HLA-DR DRB1*0401 (human) [29]): 392 nM
- IC50 (HLA-DR DRB1*0404 (human) [30]): 1640 nM

Binder: SLMLQIGNMISIWVSHS (modifications not checked) [Flu.NA.21]
- IC50 (HLA-DR DRB4*0101 (human)): 8 nM
- IC50 (HLA-DR DRB1*0301 (human) [31]): 441 nM
- IC50 (HLA-DR DRB1*0405 (human) [32]): 66 nM
- IC50 (HLA-DR DRB1*1302 (human) [33]): 10 nM
- IC50 (HLA-DR DRB5*0101 (human)): 24 nM
- IC50 (HLA-DR DRB1*0101 (human) [34]): 8 nM
- IC50 (HLA-DR DRB1*0901 (human)): 86 nM
- IC50 (HLA-DR DRB1*1501 (human) [35]): 8 nM
- IC50 (HLA-DR DRB1*0701 (human) [36]): 13 nM
- IC50 (HLA-DR DRB1*1101 (human) [37]): 83 nM
- IC50 (HLA-DR DRB1*0401 (human) [38]): 5 nM
- IC50 (HLA-DR DRB1*0404 (human) [39]): 3 nM
- IC50 (HLA-DR DRB1*0802 (human)): 89 nM
